B1: 0×1 linker variant of Construct 11 (bispecific antibody)
heavy: EVQLVETGGGLVKPGGSLRLSCSASRFSFRDYYMTWIRQAPGKGPEWVSHISGSGSTIYYADSVRGRFTISRDNAKSSLYLQMDSLQADDTAVYYCARGGRATSYYWVHWGPGTLVTVSSASTKGPSVFPLAPSSKSTSGGTAALGCLVKDYFPEPVTVSWNSGALTSGVHTFPAVLQSSGLYSLSSVVTVPSSSLGTQTYICNVNHKPSNTKVDKKVEPKSCDKTHTCPPCPAPPVAGPDVFLFPPKPKDTLMISRTPEVTCVVVDVSHEDPEVKFNWYVDGVEVHNAKTKPREEQYNSTYRVVSVLTVLHQDWLNGKEYKCKVSNAALPAPIAKTISKAKGQPREPQVYTLPPSRDELTKNQVSLTCLVKGFYPSDIAVEWESNGQPENNYKTTPPVLDSDGSFFLYSKLTVDKSRWQQGNVFSCSVMHEALHNRFTQKSLSLSPGKMLPAPKNLVVSRVTEDSARLSWTAPDAAFDSFHIEYAEPWVWGEAIVLTVPGSERSYDLTGLKPGTEYVVFIGGVKGGHNSTPLSAIFTTGGGGSMLPAPKNLVVSRVTEDSARLSWTAPDAAFDSFWITYEEKFYRGEAIVLTVPGSERSYDLTGLKPGTEYKVWIVGVKGGQGSWPLSAIFTT
light: EIVLTQSPATLSLSPGERATLSCRASQSVSGYLGWYQQKPGQAPRLLIYGASSRATGIPDRFSGSGSGTDFTLTISRLEPEDFAVYYCQQYGSSPLTFGGGTKLEIKRTVAAPSVFIFPPSDEQLKSGTASVVCLLNNFYPREAKVQWKVDNALQSGNSQESVTEQDSKDSTYSLSSTLTLSKADYEKHKVYACEVTHQGLSSPVTKSFNRGEC
B2: 0×2 linker variant of Construct 11 (bispecific antibody)
heavy: EVQLVETGGGLVKPGGSLRLSCSASRFSFRDYYMTWIRQAPGKGPEWVSHISGSGSTIYYADSVRGRFTISRDNAKSSLYLQMDSLQADDTAVYYCARGGRATSYYWVHWGPGTLVTVSSASTKGPSVFPLAPSSKSTSGGTAALGCLVKDYFPEPVTVSWNSGALTSGVHTFPAVLQSSGLYSLSSVVTVPSSSLGTQTYICNVNHKPSNTKVDKKVEPKSCDKTHTCPPCPAPPVAGPDVFLFPPKPKDTLMISRTPEVTCVVVDVSHEDPEVKFNWYVDGVEVHNAKTKPREEQYNSTYRVVSVLTVLHQDWLNGKEYKCKVSNAALPAPIAKTISKAKGQPREPQVYTLPPSRDELTKNQVSLTCLVKGFYPSDIAVEWESNGQPENNYKTTPPVLDSDGSFFLYSKLTVDKSRWQQGNVFSCSVMHEALHNRFTQKSLSLSPGKMLPAPKNLVVSRVTEDSARLSWTAPDAAFDSFHIEYAEPWVWGEAIVLTVPGSERSYDLTGLKPGTEYVVFIGGVKGGHNSTPLSAIFTTGGGGSGGGGSMLPAPKNLVVSRVTEDSARLSWTAPDAAFDSFWITYEEKFYRGEAIVLTVPGSERSYDLTGLKPGTEYKVWIVGVKGGQGSWPLSAIFTT
light: B1 light
B3: 0×3 linker variant of Construct 11 (bispecific antibody)
heavy: EVQLVETGGGLVKPGGSLRLSCSASRFSFRDYYMTWIRQAPGKGPEWVSHISGSGSTIYYADSVRGRFTISRDNAKSSLYLQMDSLQADDTAVYYCARGGRATSYYWVHWGPGTLVTVSSASTKGPSVFPLAPSSKSTSGGTAALGCLVKDYFPEPVTVSWNSGALTSGVHTFPAVLQSSGLYSLSSVVTVPSSSLGTQTYICNVNHKPSNTKVDKKVEPKSCDKTHTCPPCPAPPVAGPDVFLFPPKPKDTLMISRTPEVTCVVVDVSHEDPEVKFNWYVDGVEVHNAKTKPREEQYNSTYRVVSVLTVLHQDWLNGKEYKCKVSNAALPAPIAKTISKAKGQPREPQVYTLPPSRDELTKNQVSLTCLVKGFYPSDIAVEWESNGQPENNYKTTPPVLDSDGSFFLYSKLTVDKSRWQQGNVFSCSVMHEALHNRFTQKSLSLSPGKMLPAPKNLVVSRVTEDSARLSWTAPDAAFDSFHIEYAEPWVWGEAIVLTVPGSERSYDLTGLKPGTEYVVFIGGVKGGHNSTPLSAIFTTGGGGSGGGGSGGGGSMLPAPKNLVVSRVTEDSARLSWTAPDAAFDSFWITYEEKFYRGEAIVLTVPGSERSYDLTGLKPGTEYKVWIVGVKGGQGSWPLSAIFTT
light: B1 light
B4: 0×4 linker variant of Construct 11 (bispecific antibody)
heavy: EVQLVETGGGLVKPGGSLRLSCSASRFSFRDYYMTWIRQAPGKGPEWVSHISGSGSTIYYADSVRGRFTISRDNAKSSLYLQMDSLQADDTAVYYCARGGRATSYYWVHWGPGTLVTVSSASTKGPSVFPLAPSSKSTSGGTAALGCLVKDYFPEPVTVSWNSGALTSGVHTFPAVLQSSGLYSLSSVVTVPSSSLGTQTYICNVNHKPSNTKVDKKVEPKSCDKTHTCPPCPAPPVAGPDVFLFPPKPKDTLMISRTPEVTCVVVDVSHEDPEVKFNWYVDGVEVHNAKTKPREEQYNSTYRVVSVLTVLHQDWLNGKEYKCKVSNAALPAPIAKTISKAKGQPREPQVYTLPPSRDELTKNQVSLTCLVKGFYPSDIAVEWESNGQPENNYKTTPPVLDSDGSFFLYSKLTVDKSRWQQGNVFSCSVMHEALHNRFTQKSLSLSPGKMLPAPKNLVVSRVTEDSARLSWTAPDAAFDSFHIEYAEPWVWGEAIVLTVPGSERSYDLTGLKPGTEYVVFIGGVKGGHNSTPLSAIFTTGGGGSGGGGSGGGGSGGGGSMLPAPKNLVVSRVTEDSARLSWTAPDAAFDSFWITYEEKFYRGEAIVLTVPGSERSYDLTGLKPGTEYKVWIVGVKGGQGSWPLSAIFTT
light: B1 light
B5: 1×4 linker variant of Construct 11 (bispecific antibody)
heavy: EVQLVETGGGLVKPGGSLRLSCSASRFSFRDYYMTWIRQAPGKGPEWVSHISGSGSTIYYADSVRGRFTISRDNAKSSLYLQMDSLQADDTAVYYCARGGRATSYYWVHWGPGTLVTVSSASTKGPSVFPLAPSSKSTSGGTAALGCLVKDYFPEPVTVSWNSGALTSGVHTFPAVLQSSGLYSLSSVVTVPSSSLGTQTYICNVNHKPSNTKVDKKVEPKSCDKTHTCPPCPAPPVAGPDVFLFPPKPKDTLMISRTPEVTCVVVDVSHEDPEVKFNWYVDGVEVHNAKTKPREEQYNSTYRVVSVLTVLHQDWLNGKEYKCKVSNAALPAPIAKTISKAKGQPREPQVYTLPPSRDELTKNQVSLTCLVKGFYPSDIAVEWESNGQPENNYKTTPPVLDSDGSFFLYSKLTVDKSRWQQGNVFSCSVMHEALHNRFTQKSLSLSPGKGGGGSMLPAPKNLVVSRVTEDSARLSWTAPDAAFDSFHIEYAEPWVWGEAIVLTVPGSERSYDLTGLKPGTEYVVFIGGVKGGHNSTPLSAIFTTGGGGSGGGGSGGGGSGGGGSMLPAPKNLVVSRVTEDSARLSWTAPDAAFDSFWITYEEKFYRGEAIVLTVPGSERSYDLTGLKPGTEYKVWIVGVKGGQGSWPLSAIFTT
light: B1 light
B6: 3×2 linker variant of Construct 11 (bispecific antibody)
heavy: EVQLVETGGGLVKPGGSLRLSCSASRFSFRDYYMTWIRQAPGKGPEWVSHISGSGSTIYYADSVRGRFTISRDNAKSSLYLQMDSLQADDTAVYYCARGGRATSYYWVHWGPGTLVTVSSASTKGPSVFPLAPSSKSTSGGTAALGCLVKDYFPEPVTVSWNSGALTSGVHTFPAVLQSSGLYSLSSVVTVPSSSLGTQTYICNVNHKPSNTKVDKKVEPKSCDKTHTCPPCPAPPVAGPDVFLFPPKPKDTLMISRTPEVTCVVVDVSHEDPEVKFNWYVDGVEVHNAKTKPREEQYNSTYRVVSVLTVLHQDWLNGKEYKCKVSNAALPAPIAKTISKAKGQPREPQVYTLPPSRDELTKNQVSLTCLVKGFYPSDIAVEWESNGQPENNYKTTPPVLDSDGSFFLYSKLTVDKSRWQQGNVFSCSVMHEALHNRFTQKSLSLSPGKGGGGSGGGGSGGGGSMLPAPKNLVVSRVTEDSARLSWTAPDAAFDSFHIEYAEPWVWGEAIVLTVPGSERSYDLTGLKPGTEYVVFIGGVKGGHNSTPLSAIFTTGGGGSGGGGSMLPAPKNLVVSRVTEDSARLSWTAPDAAFDSFWITYEEKFYRGEAIVLTVPGSERSYDLTGLKPGTEYKVWIVGVKGGQGSWPLSAIFTT
light: B1 light
B7: 3×3 linker variant of Construct 11 (bispecific antibody)
heavy: EVQLVETGGGLVKPGGSLRLSCSASRFSFRDYYMTWIRQAPGKGPEWVSHISGSGSTIYYADSVRGRFTISRDNAKSSLYLQMDSLQADDTAVYYCARGGRATSYYWVHWGPGTLVTVSSASTKGPSVFPLAPSSKSTSGGTAALGCLVKDYFPEPVTVSWNSGALTSGVHTFPAVLQSSGLYSLSSVVTVPSSSLGTQTYICNVNHKPSNTKVDKKVEPKSCDKTHTCPPCPAPPVAGPDVFLFPPKPKDTLMISRTPEVTCVVVDVSHEDPEVKFNWYVDGVEVHNAKTKPREEQYNSTYRVVSVLTVLHQDWLNGKEYKCKVSNAALPAPIAKTISKAKGQPREPQVYTLPPSRDELTKNQVSLTCLVKGFYPSDIAVEWESNGQPENNYKTTPPVLDSDGSFFLYSKLTVDKSRWQQGNVFSCSVMHEALHNRFTQKSLSLSPGKGGGGSGGGGSGGGGSMLPAPKNLVVSRVTEDSARLSWTAPDAAFDSFHIEYAEPWVWGEAIVLTVPGSERSYDLTGLKPGTEYVVFIGGVKGGHNSTPLSAIFTTGGGGSGGGGSGGGGSMLPAPKNLVVSRVTEDSARLSWTAPDAAFDSFWITYEEKFYRGEAIVLTVPGSERSYDLTGLKPGTEYKVWIVGVKGGQGSWPLSAIFTT
light: B1 light

Target: T1, LukAB toxoid variant (LukA E323A), recombinant polyhistidine-tagged (S. aureus, UniProt Q2FFA2 28-351; P21224 30-338)
T1 sequence 1: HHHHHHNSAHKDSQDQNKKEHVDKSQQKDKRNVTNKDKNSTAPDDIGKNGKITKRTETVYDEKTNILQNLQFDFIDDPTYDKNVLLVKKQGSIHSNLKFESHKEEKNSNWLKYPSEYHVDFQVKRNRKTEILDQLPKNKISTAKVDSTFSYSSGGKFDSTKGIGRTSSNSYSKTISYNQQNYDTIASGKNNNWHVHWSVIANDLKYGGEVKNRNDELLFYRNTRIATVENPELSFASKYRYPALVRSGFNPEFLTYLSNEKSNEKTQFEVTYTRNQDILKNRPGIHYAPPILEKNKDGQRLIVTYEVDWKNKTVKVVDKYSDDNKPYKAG
T1 sequence 2: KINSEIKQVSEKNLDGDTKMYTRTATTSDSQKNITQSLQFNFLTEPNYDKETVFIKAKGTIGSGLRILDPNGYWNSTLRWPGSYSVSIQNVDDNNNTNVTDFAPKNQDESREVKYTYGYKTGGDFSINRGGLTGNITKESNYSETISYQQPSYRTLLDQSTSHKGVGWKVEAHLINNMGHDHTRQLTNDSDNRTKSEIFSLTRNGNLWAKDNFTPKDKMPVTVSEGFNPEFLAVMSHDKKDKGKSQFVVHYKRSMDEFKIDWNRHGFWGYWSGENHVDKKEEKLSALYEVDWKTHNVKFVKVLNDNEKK
Test: ELISA, biotinylated toxin on streptavidin plate

Row | Binder | binding result
1 | B1 | binds
2 | B2 | binds
3 | B3 | binds
4 | B4 | binds
5 | B5 | binds
6 | B6 | binds
7 | B7 | binds

From US20190127444A1 (NEW YORK UNIVERSITY, published 2019)
